One data set concerns the target EBOV GP1,2 (UniProt Q05320 Q05320:33-650). Put plainly: filter. The following applies: label: 5'-32P.
The target in data set [1] is T1, EBOV sGP (soluble glycoprotein) (Zaire ebolavirus, UniProt P60170 P60170:33-324). Put plainly: filter. The following applies: tags: His-tag; chain copies: 2; label: 5'-32P.
Data set [2] addresses T2, Human serum albumin (HSA) (Homo sapiens, UniProt P02768 P02768:25-609). Put plainly: filter; HSA up to 6 uM. The following applies: label: 5'-32P.
Data set [3] concerns the target T3, Lcn2 (lipocalin 2, uterocalin) (UniProt P11672 P11672:21-200).
T3 sequence: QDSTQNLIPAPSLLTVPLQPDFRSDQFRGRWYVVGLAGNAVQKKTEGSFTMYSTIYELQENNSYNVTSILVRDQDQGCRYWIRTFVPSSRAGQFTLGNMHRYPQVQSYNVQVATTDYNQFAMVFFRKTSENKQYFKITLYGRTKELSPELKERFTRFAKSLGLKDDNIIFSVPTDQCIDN
Put plainly: filter; no serum. To be noted: tags: His-tag; label: 5'-32P.

For data set [4], the target named is T4, SUDV sGP (soluble glycoprotein) (Sudan ebolavirus, UniProt Q7T9E0 Q7T9E0:33-324).
T4 sequence: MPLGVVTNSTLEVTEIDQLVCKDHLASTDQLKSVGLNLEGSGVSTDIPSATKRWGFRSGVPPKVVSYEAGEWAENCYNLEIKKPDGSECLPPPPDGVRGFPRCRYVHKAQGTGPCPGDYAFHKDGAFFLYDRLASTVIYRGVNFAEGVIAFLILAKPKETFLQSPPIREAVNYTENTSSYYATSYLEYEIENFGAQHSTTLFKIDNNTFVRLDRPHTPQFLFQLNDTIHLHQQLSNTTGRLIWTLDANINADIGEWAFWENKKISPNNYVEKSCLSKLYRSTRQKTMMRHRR
Put plainly: filter; no serum. The following applies: chain copies: 2; label: 5'-32P.

The target of data set [5] is T1, EBOV sGP (soluble glycoprotein). Put plainly: filter; PBS with 5 mM Mg, pH 7. To be noted: tags: His-tag; chain copies: 2; label: 5'-32P.
Data set [6] has as its target T2, Human serum albumin (HSA). Put plainly: filter; HSA tested up to 6 uM; estimated. To be noted: label: 5'-32P.
The target in data set [7] is T3, Lcn2 (lipocalin 2, uterocalin). Put plainly: filter; text says Lcn2 not bound by the aptamers. To be noted: tags: His-tag; label: 5'-32P.

T1 sequence (P60170 33-324, one chain of several): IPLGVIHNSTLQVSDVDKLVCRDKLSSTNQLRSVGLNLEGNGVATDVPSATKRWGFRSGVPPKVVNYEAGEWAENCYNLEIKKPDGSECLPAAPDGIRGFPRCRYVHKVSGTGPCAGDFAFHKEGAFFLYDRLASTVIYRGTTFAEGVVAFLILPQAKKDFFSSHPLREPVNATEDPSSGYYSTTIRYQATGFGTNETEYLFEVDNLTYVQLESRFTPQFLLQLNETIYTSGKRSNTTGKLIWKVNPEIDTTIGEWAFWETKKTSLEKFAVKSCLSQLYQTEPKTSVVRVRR
T2 sequence (P02768 25-609, one chain of several): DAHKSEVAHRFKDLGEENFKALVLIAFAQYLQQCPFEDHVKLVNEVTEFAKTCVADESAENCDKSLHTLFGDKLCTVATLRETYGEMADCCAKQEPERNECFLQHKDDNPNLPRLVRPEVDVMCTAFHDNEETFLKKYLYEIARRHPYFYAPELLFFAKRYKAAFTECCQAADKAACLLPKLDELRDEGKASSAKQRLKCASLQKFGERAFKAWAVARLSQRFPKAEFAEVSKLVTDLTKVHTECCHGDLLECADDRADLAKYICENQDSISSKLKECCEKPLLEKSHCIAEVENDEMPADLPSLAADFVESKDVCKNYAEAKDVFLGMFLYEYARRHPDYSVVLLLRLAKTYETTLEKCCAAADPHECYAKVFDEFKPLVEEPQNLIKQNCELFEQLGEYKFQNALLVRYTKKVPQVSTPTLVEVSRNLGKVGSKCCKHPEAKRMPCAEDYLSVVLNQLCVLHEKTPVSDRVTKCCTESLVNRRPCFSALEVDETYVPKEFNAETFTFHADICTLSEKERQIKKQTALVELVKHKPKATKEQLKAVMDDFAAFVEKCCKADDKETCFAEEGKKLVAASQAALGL
Chain of EBOV GP1,2 (Q05320 33-650, one chain of several): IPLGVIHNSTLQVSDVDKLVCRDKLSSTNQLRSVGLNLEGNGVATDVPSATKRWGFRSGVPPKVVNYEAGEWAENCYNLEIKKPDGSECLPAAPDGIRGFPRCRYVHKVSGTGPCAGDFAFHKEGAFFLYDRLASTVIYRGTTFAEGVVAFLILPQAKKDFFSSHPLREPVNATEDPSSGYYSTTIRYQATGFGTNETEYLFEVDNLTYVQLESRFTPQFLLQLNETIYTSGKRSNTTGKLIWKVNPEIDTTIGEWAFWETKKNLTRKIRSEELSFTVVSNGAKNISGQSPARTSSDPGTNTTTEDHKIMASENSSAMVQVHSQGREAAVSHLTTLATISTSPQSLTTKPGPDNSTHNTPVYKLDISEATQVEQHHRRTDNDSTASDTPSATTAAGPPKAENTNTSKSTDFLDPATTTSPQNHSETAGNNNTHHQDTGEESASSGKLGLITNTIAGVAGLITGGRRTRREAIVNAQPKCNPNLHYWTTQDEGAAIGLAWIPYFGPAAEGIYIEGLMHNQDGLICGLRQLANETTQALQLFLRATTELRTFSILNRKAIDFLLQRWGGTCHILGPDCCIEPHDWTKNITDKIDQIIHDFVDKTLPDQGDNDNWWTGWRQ

B1: Aptamer 6011 (ssDNA)
DNA: GCCTGTTGTGAGCCTCCTGTCGAACAACCACTCATATCTACTACATGACTTGCTCCATTCTGTTCTTTCTCTACGCATTGAGCGTTTATTCTTGTCTCCC
Take B1: the figures for the binding result (in the data set with EBOV GP1,2; in data set [2]; in data set [3]) were “binds”, “no binding” and “no binding”, respectively. Moreover, the results for the Kd in data set [1] and in data set [4] were 30 nM and 240 nM, respectively.

B2: Aptamer 6022 (ssDNA)
DNA: GCCTGTTGTGAGCCTCCTGTCGAACCCTATCTTGTTCATGCTATTCTCAATATTTTCGGTTCACTTACCGTCTGCCTTTGAGCGTTTATTCTTGTCTCCC
As for B2, the results for the Kd in data set [5] and in data set [6] were 100 nM and ~100000 nM, respectively.

B3: Aptamer 6012 (ssDNA)
DNA: GCCTGTTGTGAGCCTCCTGTCGAACGTATTTCTTGCTTCCTTCCTTGCCGCGCACATTGCAGTATAAGTACCTGTCGTTGAGCGTTTATTCTTGTCTCCC
Take B3: the Kd in data set [5] stood at 90 nM; with EBOV GP1,2 it was 22 nM. The binding result in data set [7] and in data set [2] was “no binding” each time.

B4: Aptamer 6021 (ssDNA)
DNA: GCCTGTTGTGAGCCTCCTGTCGAAACTGTACTTCACTTTTACCTCCTCTTGCTCTTATCTGTACTATTGTCTCTCCGTTGAGCGTTTATTCTTGTCTCCC
For the molecule B4, the Kd in data set [5] was found to be 20 nM. In addition, the binding result in data set [2] was “no binding”.

As usually defined, the Kd is a measure of binding affinity in units of concentration.

(Values after US11231420 (APTALOGIC, INC.).)
